{"source": "paper PMC6541287", "about": "(2019)", "binders": {"B1": {"name": "EhP3 (protein)", "chain": "MAESREDCVFLSKLAEQSERYDEMVQYMKQVAALNTELSVEERNLLSVAYKNVIGSRRASWRIITSLEQKEQAKGNDKHVEIIKGYRAKIEDELAKYCDDVLKVIKENLLPNASTSESKVFYKKMEGDYYRYYAEFTVDEKRQEVADKSLAAYTEATEISNADLAPTHPIRLGLALNFSVFYYEIMNDADKACQLAKQAFDDSIAKLDEVPESSYKDSTLIMQLLRDNLTLWTSDTADEE"}}, "molecular_target": "T1, Coactosin (Entamoeba histolytica, UniProt C4M4P4)", "T1 chain": "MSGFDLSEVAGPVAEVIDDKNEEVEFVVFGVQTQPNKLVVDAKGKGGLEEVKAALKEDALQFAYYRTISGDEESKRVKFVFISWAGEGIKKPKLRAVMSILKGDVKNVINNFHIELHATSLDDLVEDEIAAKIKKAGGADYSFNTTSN", "assay": "SPR", "data": [{"binder": "B1", "values": [{"measurement": "Kd", "value": 3000, "unit": "nM"}]}]}
